Measured values as given in patent publication US12539335B2, “Tricyclic polypeptide conjugated drug and use thereof” (CONJUSTAR (ZHUHAI) BIOLOGICS CO., LTD., priority 2021, dated 2026).
Where a name gives a salt, the structure may show the parent alone. Starred links: 1 amine or outer side, 2 acyl side, 3 side chain; linkers in the order of their positions; H or OH if unused. Positions of bridges follow the written chain, without caps; N, C: chain ends. Non-standard residues stand in square brackets, D forms with d. Residues, ends and D or L forms follow the SMILES beside them. Chains are numbered I, II in the order given. *: point of attachment. TATA = O=C(CC[*:1])N1CN(C(=O)CC[*:2])CN(C(=O)CC[*:3])C1; Dolaproine = CO[C@@H]([C@@H]1CCCN1)[C@@H](C)C(=O)O; Dil = CC[C@H](C)[C@H](NC)[C@@H](CC(=O)O)OC; 1Nal = N[C@@H](Cc1cccc2ccccc12)C(=O)O; X2 = O=C(CCCC(=O)[*:2])NCCC(=O)[*:1]; PABC = O=C(OCc1ccc(N[*:1])cc1)[*:2]; X1 = C[C@@H](N*)[C@@H](O)c1ccccc1; Hyp = O=C(O)[C@@H]1C[C@@H](O)CN1; hArg = N=C(N)NCCCC[C@H](N)C(=O)O; Cit = NC(=O)NCCC[C@H](N)C(=O)O; Pen = CC(C)(S)[C@H](N)C(=O)O; NMeV = CN[C@H](C(=O)O)C(C)C; Sar = CNCC(=O)O

Assays:
[1] = Stability in plasma, humans; format: in vitro ADME; conditions: human, 37° C.
Description: Test Example 9: Stability Analysis of the Compounds of the Present Invention in Plasma from Different Species
To test the stability of the compounds of the present invention in plasma from SD rats, Cynomolgus macaques, and humans.
The corresponding incubation plates, including T0, T10, T30, T60, T120, and T240 incubation plates, were added with a 2 μL working solution of the compound to be tested (100 μM). Three parallel wells were prepared for each sample. Then, 98 μL of blank plasma from SD rats, Cynomolgus macaques, and humans was added to the corresponding incubation plates to which the working solution had been added. All samples were incubated in a 37° C. water bath. […] At the end of each incubation time point, the corresponding incubation plate was removed, added with stop buffer, precipitated, and centrifuged for 20 minutes. Then, 150 μL of the supernatant was analyzed by the LC-MS/MS method. The concentration of the compound to be tested in the sample was semi-quantitatively determined by the liquid chromatography-tandem mass spectrometry (LC-MS/MS) method.

[2] = Pharmacokinetic analysis in Cynomolgus macaque plasma; format: in vivo; conditions: cynomolgus monkey, Cynomolgus macaques, single IV 1 mg/kg, plasma
Description: Test Example 6: Pharmacokinetic Analysis in Cynomolgus Macaque Plasma
To test the pharmacokinetics of the compounds of the present invention in Cynomolgus macaques.
(§1) The pharmacokinetic characteristics of the compound after intravenous injection were tested according to a standard protocol in Cynomolgus macaques. The compound to be tested was formulated into a clear solution using 25 mM L-histidine (pH=7) in 10% sucrose as a vehicle. Cynomolgus macaques were given a single intravenous injection of 1 mg/kg of the compound to be tested. Whole blood was collected at time points of 0.083, 0.25, 0.5, 1, 2, 4, 8, and 24 hours after administration to get plasma. The concentration of the compound to be tested and the concentration of its potential metabolite MMAE were analyzed by the LC-MS/MS method, and the pharmacokinetic parameters were calculated by Phoenix WinNonlin software.

[3] = Metabolic stability in kidney S9, Cynomolgus macaques; format: in vitro ADME; conditions: cynomolgus macaque
Description: (§2) Test Example 8: Metabolic Stability of the Compounds of the Present Invention in Kidney S9 from Mice, Rats, Cynomolgus Macaques, and Humans
(§3) To investigate the metabolic stability of the compounds of the present invention in kidney S9 from mice, rats, Cynomolgus macaques, and humans.
(§4) Materials: Kidney S9 from CD-1 mice, SD rats, Cynomolgus macaques, and humans were purchased from BioIVT or XenoTech LLC and stored in a −80° C. refrigerator.
(§5) Experimental procedure: Eight 96-well plates, designated T0, T5, T15, T30, T45, T60, Blank, and NCF60, were prepared. The first six incubation plates corresponded to reaction time points of 0, 5, 15, 30, 45, and 60 minutes, respectively. No test sample or control compound was added to the Blank plate.
(§6) The T0, T5, T15, T30, T45, and T60 plates were added with a 2 μL working solution of the test sample (10 mM of a solution of the compound to be tested in DMSO, diluted to 100 μM with 100% acetonitrile) and 100 μL of a S9 working solution (kidney S9 protein concentration of 1.0 mg/mL), and the Blank plate was only added with the S9 working solution. The above incubation plates were then placed in a 37° C. water bath for pre-incubation for about 10 minutes.
(§7) At the end of the pre-incubation, 98 μL of an auxiliary enzyme working solution was added to each sample well except the TO plate to start the reaction. […]

[4] = Pharmacokinetic analysis in rat plasma; format: in vivo, SD rats; conditions: Sprague-Dawley (SD), rat, SD rats, single IV 3 mg/kg, plasma
Description: Test Example 5: Pharmacokinetic Analysis of the Compounds of the Present Invention in Rat Plasma
To test the pharmacokinetics of the compounds of the present invention in SD rats.
as §1, with “were tested in rats according to” for “were tested according to”, “a standard protocol. The compound” for “a standard protocol in Cynomolgus macaques. The compound”, “a vehicle. Two rats were given” for “a vehicle. Cynomolgus macaques were given”, “injection of 3 mg/kg of” for “injection of 1 mg/kg of”, “the compound of the present invention and the” for “the compound to be tested and the”

[5] = Metabolic stability in kidney S9, CD-1 mice; format: in vitro ADME; conditions: mouse; CD-1 mice kidney S9
Description: as §2, §3, §4, §5, §6, §7

In the case of CC[C@H](C)[C@@H]([C@@H](CC(=O)N1CCC[C@H]1[C@H](OC)[C@@H](C)C(=O)N[C@H](C)[C@@H](O)c1ccccc1)OC)N(C)C(=O)[C@@H](NC(=O)[C@H](C(C)C)N(C)C(=O)OCc1ccc(NC(=O)[C@H](CCCNC(N)=O)NC(=O)[C@@H](NC(=O)CCCC(=O)NCCC(=O)N(C)CC(=O)N(C)CC(=O)N(C)CC(=O)N(C)CC(=O)N(C)CC(=O)N(C)CC(=O)N(C)CC(=O)N(C)CC(=O)N(C)CC(=O)N(C)CC(=O)N[C@H]2CCCCNC(=O)C[C@@H](C(=O)N[C@H]3CSCCC(=O)N4CN5CN(C4)C(=O)CCSC(C)(C)[C@H](NC(=O)[C@@H](CC(=O)O)NC(=O)[C@H](Cc4cccc6ccccc46)NC(=O)[C@@H]4CCCN4C3=O)C(=O)N[C@@H](CCSC)C(=O)N[C@@H](CCCCNC(=N)N)C(=O)N[C@@H](CC(=O)O)C(=O)N[C@@H](Cc3c[nH]c4ccccc34)C(=O)N[C@@H](CO)C(=O)N[C@@H]([C@@H](C)O)C(=O)N3CCC[C@H]3C(=O)N3C[C@H](O)C[C@H]3C(=O)N[C@@H](Cc3c[nH]c4ccccc34)C(=O)N[C@H](C(N)=O)CSCCC5=O)NC(=O)CN(C)C2=O)C(C)C)cc1)C(C)C [Acetate salt of PDC_2] (I: [Sar][Sar][Sar][Sar][Sar][Sar][Sar][Sar][Sar][Sar]K[Sar]DCP[1Nal][dD][Pen]M[hArg]DWSTP[Hyp]WC-NH2 / II: V[Cit][PABC][NMeV]V[Dil][Dolaproine]-X1; lactam I:11-I:13; linker I:14-I:18-I:28 via TATA; linker I:N-II:N via X2), the half-life at 2 μM [1] is reported as over 9.63 h, the AUC(0-t) [2] is reported as 1 µM·h and the C0 [2] is reported as 3.1 µM. For the same compound, the clearance [2] was 3.6 mL/min/kg, the half-life [2] was 1.5 h and the Vd ([2]; read-out: Vdss) was 0.2 L/kg. For the same compound, the half-life at 1 μM [3] was over 2.42 h, the microsomal CLint at 1 μM [3] was under 9.6 µL/min/mg and the AUC(0-t) [4] was 4.4 µM·h. For the same compound, the C0 [4] was 6.9 µM, the clearance [4] was 2.7 mL/min/kg and the half-life [4] was 0.7 h. For the same compound, the Vd ([4]; read-out: Vdss) was 0.1 L/kg, the half-life at 1 μM [5] was over 2.42 h and the microsomal CLint at 1 μM [5] was under 9.6 µL/min/mg.
